Test results reported in PMC6447857, “Structural Study of Agmatine Iminohydrolase From Medicago truncatula, the Second Enzyme of the Agmatine Route of Putrescine Biosynthesis in Plants” (Frontiers in Plant Science, 2019).

Molecular target: the molecule itself
Assay: SEC-MALS; in-line SEC (WTC-015S5 column) with MALS detector, 5.5 mg/ml MtAIH solution loaded; monomer to dimer

B1: agmatine iminohydrolase from Medicago truncatula (enzyme)
chain: SNAHGFHMPAEWEPHSQCWIGWPERADNWRDGAVHAQLVFTRVAAAISRFEKVTVCASSAQWENARNQLPDHVRVVEISSNDSWFRDIGPTFVVRRETSKSDDAEHRIAGIDWTFNSWGGLEDGCYCDWSLDSLVKKKILDVERIPRFSHSMVLEGGSIHVDGEGTCITTEECLLNKNRNPHLSKSQIEDELKAYLGVRKVIWLPRGLYGDDDTNGHVDNMCCFVRPGAVLLSWTDDKTDPQYERSEEAYSLFSSVTDANGRKFEVIKLHVPGPLYMTEKEAAGVFQDDGAKPRLPGTRLAASYVNFYIANGAIIAPQFGDKKWDDEAIRVLSKTFPHHEVVGIEGSREIVLSGGNIHCITQQQPAI
notes: Ser-Asn-Ala linker from the vector pMCSG68 that is not cleaved from the expressed protein; agmatine iminohydrolase, Medicago truncatula, UniProt G7JT50, open reading frame MTR_4g112810, encoded protein starting from codon number 11 to the end; theoretical mass of the construct 41.2 kDa; Homodimer by MALS, SAXS and in both crystal forms; In 6NIC the protein holds the small molecule …
- stoichiometry N: 2
